The RNAGym collection of RNA variant scans (doi:10.7554/elife.80360)

B1: HDV Ribozyme (parent)
chain: GGCCGGCAUGGUCCCAGCCUCCUCGCUGGCGCCGGCUGGGCAACAUUCCGAGGGGACCGUCCCCUCGGUAAUGGCGAAUGGGACCCA

Variants of: B1
Experiment: self-cleavage, relative activity (ratio to wild type); higher = more cleavage; co-transcriptional

| Variant | self-cleavage |
| --- | --- |
| G6A C30U | 0.432 |
| G6A C30A | 0.0421 |
| G5U C85A | 0.594 |
| G5U C85U | 0.399 |
| G5U U27C | 0.0978 |
| G6C A43C | 0.0519 |
| G6A G74C | 0.155 |
| G6A G74U | 0.104 |
| G6A G74A | 0.0923 |
| G5U C58A | 0.277 |
| G6C C32U | 0.63 |
| G6C C32G | 1.1 |
| G6A G11U | 0.095 |
| G6A G11C | 0.222 |
| G5U A83U | 0 |
| G5U A83C | 0 |
| G6A C26G | 0.856 |
| G6A U9C | 0.795 |
| G6A U9G | 0.653 |
| G5C U37A | 0.104 |
| G6C G81C | 0.185 |
| G6C G81A | 0.0811 |
| G6C G81U | 0.0615 |
| G5U C22G | 0.0615 |

| Variant | self-cleavage |
| --- | --- |
| G6C G80C | 0.172 |
| G6C G80A | 0.0665 |
| G6A G39C | 0.0415 |
| G6A G39U | 0.317 |
| G6C C18G | 0 |
| G6A C21G | 0.203 |
| G6A C21U | 0.0665 |
| G6C A87G | 0.288 |
| G6A A78U | 0.0297 |
| G6C C30U | 0.0723 |
| G6C C30G | 0.0615 |
| G5U G34C | 0 |
| G5U G31C | 0.0723 |
| G5U G31A | 0.135 |
| G5U G31U | 0.277 |
| G5U U60G | 0.151 |
| G5U C41A | 0.172 |
| G6A A8C | 0.323 |
| G6C A77U | 0.145 |
| G5C U65C | 0.222 |
| G5C U65G | 0.0978 |
| G6C A16U | 0.199 |
| G6C G74A | 0.0875 |
| G6A C24U | 0.308 |

| Variant | self-cleavage |
| --- | --- |
| G6A C24A | 0.283 |
| G6A C44A | 0.201 |
| G6A C44U | 0.457 |
| G6C C19U | 0.0773 |
| G5U G29C | 0 |
| G5U C86U | 0.554 |
| G5U C86A | 0.755 |
| G6C C15U | 0.138 |
| G6C C15A | 0 |
| G6A A83U | 0.324 |
| G6C C44U | 0 |
| G6C C75A | 0.0723 |
| G6C C75G | 0.0536 |
| G5U U47G | 0.222 |
| G6C A78G | 0 |
| G6C A78C | 0.0831 |
| G6C C62G | 0.151 |
| G6C C62U | 0.193 |
| G6A G10C | 0.249 |
| G6C G68C | 0.364 |
| G6A U12C | 0.277 |
| G6C C63A | 0.582 |
| G6C C63G | 0.246 |
| G5U U65G | 0.475 |

| Variant | self-cleavage |
| --- | --- |
| G5U C15G | 0 |
| G6A U27C | 0.268 |
| G6C C22U | 0.185 |
| G6A C33G | 0.0536 |
| G6C C41A | 0 |
| G6C C41U | 0 |
| G6C C41G | 0 |
| G6A C32G | 0.138 |
| G6A C32U | 1.12 |
| G6C G54U | 0.231 |
| G6C C48A | 0.443 |
| G6C C48G | 0.199 |
| G5U G55A | 0.467 |
| G5U A70U | 0.222 |
| G5U A70C | 0.415 |
| G6A U46G | 0.229 |
| G5U C33U | 0.615 |
| G6C C66U | 0.256 |
| G6C C66A | 0.201 |
| G6C A51G | 0.222 |
| G6C A51U | 0.469 |
| G5U C24A | 0.158 |
| G6A A87C | 0.635 |
| G6A A43U | 0.116 |

| Variant | self-cleavage |
| --- | --- |
| G6A G29A | 0.0959 |
| G6A A56C | 0.571 |
| G6A A56G | 0.848 |
| G6A A56U | 0.601 |
| G5U A42G | 0.249 |
| G5U A42U | 0.208 |
| G6A A51G | 0.517 |
| G6A A51C | 0.522 |
| G6A A71C | 0.269 |
| G6A A71G | 0.762 |
| G6A A71U | 0.554 |
| G5U G59C | 0.415 |
| G6A C18A | 0 |
| G6A C18G | 0.115 |
| G6A C18U | 0.148 |
| G6A U37G | 0.128 |
| G5U C49G | 0.0831 |
| G5U A56G | 0.391 |
| G6A C48U | 0.759 |
| G6A C48A | 0.465 |
| G6A C48G | 0.657 |
| G5C U69G | 0.111 |
| G5C U69A | 0.111 |
| G5U U69C | 0.277 |

| Variant | self-cleavage |
| --- | --- |
| G5U U69A | 0.262 |
| G5U G35A | 0.156 |
| G5U G35U | 0.108 |
| G5U G82C | 0 |
| G6A G59U | 0.755 |
| G5U C13G | 0.0978 |
| G5U C13U | 0.115 |
| G5U C13A | 0.217 |
| G6A G34C | 0.104 |
| G6C C26U | 0.646 |
| G6C C26A | 0.369 |
| G6C C26G | 0.378 |
| G6A G76C | 0.764 |
| G6C G25C | 0 |
| G6C G25A | 0.0898 |
| G6C C36G | 0.158 |
| G6C C36U | 0.175 |
| G5C U47C | 0.0594 |
| G5C U47G | 0.0536 |
| G6C G40U | 0.0536 |
| G6C G40C | 0.175 |
| G6A C58U | 0.702 |
| G6A C58G | 0.68 |
| G5U C84U | 0.219 |

| Variant | self-cleavage |
| --- | --- |
| G6C G39C | 0.293 |
| G6C G39U | 0.108 |
| G6C G39A | 0.0405 |
| G5U A8G | 0.356 |
| G5U A8U | 0.208 |
| G5U G40A | 0.364 |
| G5U G40C | 0.115 |
| G5U G40U | 0.155 |
| G6C G10A | 0.147 |
| G6C G10U | 0.0755 |
| G6C A56G | 0.453 |
| G6C A56U | 0.214 |
| G6A C63A | 0.407 |
| G5U U23A | 0.578 |
| G5U U23G | 0 |
| G6C G59A | 0.492 |
| G6C G59C | 0.277 |
| G5U U20G | 0.111 |
| G6C C7G | 0.475 |
| G6C C7U | 0.787 |
| G5U G38C | 0.0875 |
| G6A G80U | 0.0813 |
| G6A G80A | 0.147 |
